Test results published in publication PMC5708649 (PLoS ONE, 2017).

Target: inactive E433A variant of full-length PgDPP III (Porphyromonas gingivalis W83, UniProt Q7MX92 1-886, E433A)
Assay: ITC
Conditions: both partners purified

B1: tynorphin (peptide)
peptide: VVYPW
notes: also called VVYPW; pentapeptide tynorphin
Question: Does B1 bind?
Answer: binds

Question: Does IVYPW bind?
Answer: binds
